The test addresses human amyloid β 1–40 carrying the A2V mutation (Aβ_(1–40A2V)) (human). Put plainly: far-Western, overlay or dot blot.

The results in this text go back to article PMC4068289.

In the case of “human amyloid β 1–40 carrying the A2V mutation (Aβ_(1–40A2V)) (peptide)”, the fold increase in the proportion of A11-stained oligomers against WT stood at 3 fold.
